# Experimental data: US6328728A, “Composition and method for enhancing electrotransport agent delivery” (Alza Corporation, priority 1997, dated 2001)
# Assay: Measurement of circular dichroism (mean residue ellipticity at 222 nm)
# Format: physicochemical
# Conditions: for Ellipticity (mean residue at 222 nm) / Ellipticity (mean residue) (222 nm), raw / Ellipticity (mean residue) (222 nm), raw value: 32° C.
# From the text: In general, the structure of a polypeptide in an aqueous buffered solution is in constant flux between portions thereof being random coil and alpha-helix configurations. For the polypeptides used in the following examples, the predominant structure is a random coil since the alpha-helix configuration is unstable in the absence of bound surfactant. According to the present invention adding surfactant to an aqueous solution of a polypeptide stabilizes the alpha-helix configuration. Circular dichroism is a measurement of the amount of the alpha-helix configured polypeptide present in the solution. Thus, circular dichroism provides an indirect measurement of the degree of binding of the surfactant to the polypeptide. (See, for example, Epand R. M., Epand R. F., Orlowski R. C., Schuleter R. J., Boni L. T. and Hui S. W., Biochemistry 22, 5074-5084 (1983); Hui, S. W., Epand R. M., Dell K. R., Epand R. F. and Orlowski R. C., Biochimica Biophysica Acta 772, 264-272 (1984); Epand R. M., Epand R. F., and Orlowski R. C., International Journal Peptide Protein Research 25 105-111; Epand R. M., Epand R. F., Orlowski R. C., Seyler J. K. and Colescott R. L., Biochemistry 25, 1964-1968; Epand R. M., Seyler J. K. and Orlowski R. C., European Journal Biochemistry 159, 125-127 (1986); Wiersema P. H., Loeb A. L. and Overbeek, J., Colloid Interface Science 22, 78-99 (1966)).
# The surfactant/peptide circular dichroism (CD) spectra were obtained in a 2 mm path-length cell (110-Q-2 Model, AVIV, Lakewood, N.J.) at 32° C. The cell was initially loaded with 0.60 mL of a solution containing about 0.25 mg/mL of the peptide in 10 mM sodium chloroacetate (pH 3.5) or 10 mM sodium borate (pH 9.0). The buffers were selected to minimize the effect of the temperature on the pH of the solution and to minimize light absorption, thereby optimizing the signal-to-noise ratio (SNR). The peptide concentration was determined by spectrophotometry, with log-log correction for light scattering. The surfactant concentration was increased step-wise by titration of concentrated surfactant stock directly into the CD cell, followed by eight inversions of the cell, with the air bubble providing the mixing turbulence. After mixing, the cell was placed into the AVIV 62 CD spectrometer (AVIV, Lakewood, N.J.). In order to approximate temperature and chemical equilibrium, the sample remained in the spectrometer 5 minutes before a reading was taken. The CD spectrum was taken using a band pass of 1 nm, a data interval of 1 nm, and a data averaging time of 10 seconds. The mean residue ellipticity is the ellipticity divided by the path length in cm times the amino acid residue concentration in decimoles/cm^3. See Methods in Enzymology, Vol 130, pp 208-269, Yang et al, "Calculation of Protein Conformation from Circular Dichroism" (1986).
# The measurement procedures described above were conducted on an aqueous solution of the protein insulinotropin, with TWEEN® 20 (MW=1126 g/mol) as the surfactant, with the following modifications. The insulinotropin donor solution concentration was 0.12 mg/mL. One test was run in 10 mM sodium borate at pH 9.0 and another test in 10 mM sodium chloroacetate at pH 3.5.
# Fractional changes (%δ) are defined as the difference between the reading at a given surfactant concentration (Ec) minus the reading at zero surfactant (E0), the quantity divided by the difference between the reading at saturated surfactant concentration (Es) minus the reading at zero surfactant (E0), i. e. %δ=(Ec -E0)/(Es-E0).
# The measurement procedures described earlier were conducted on an aqueous solution of insulinotropin as the agent, and TWEEN® 40 (molecular weight 1282 g/mol) as the surfactant with the following changes. The insulinotropin concentration was initially 0.29 mg/mL, and 0.21 mg/mL after the final TWEEN® 40 addition and the temperature was held at 32° C. Two tests were conducted at two different concentrations of TWEEN® 40. […]
# [1] = pH 3.5, 10 mM sodium chloroacetate, TWEEN 20 0
# [2] = pH 3.5, 10 mM sodium chloroacetate, TWEEN 20 0.133 mM
# [3] = pH 3.5, 10 mM sodium chloroacetate, TWEEN 20 0.266 mM
# [4] = pH 9.0, 10 mM sodium borate, TWEEN 20 0
# [5] = pH 9.0, 10 mM sodium borate, TWEEN 20 0.133 mM
# [6] = pH 9.0, 10 mM sodium borate, TWEEN 20 0.266 mM
# [7] = pH 9.0, 10 mM sodium borate, TWEEN 20 0.515 mM
# [8] = pH 9.0, 10 mM sodium borate, TWEEN 20 1.00 mM
# [9] = pH 9.0, 10 mM sodium borate, TWEEN 20 1.67 mM
# [10] = pH 9.0, 10 mM sodium borate, TWEEN 20 2.56 mM
# [11] = pH 9.0, 10 mM sodium borate, TWEEN 20 2.66 mM
# [12] = pH 9.0, 10 mM sodium borate, TWEEN 20 4.00 mM
# [13] = pH 9.0, 10 mM sodium borate, TWEEN 20 5.00 mM
# [14] = pH 9.0, 10 mM sodium borate, TWEEN 20 7.04 mM
# [15] = pH 9.0, 10 mM sodium borate, TWEEN 20 7.26 mM
# [16] = pH 9.0, 10 mM sodium borate, TWEEN 20 9.41 mM
# [17] = pH 9.0, 10 mM sodium borate, TWEEN 20 12.3 mM
# [18] = pH 9.0, 10 mM sodium borate, TWEEN 20 17.7 mM
# [19] = pH 9.0, 10 mM sodium borate, TWEEN 20 20.0 mM
# [20] = pH 9.0, 10 mM sodium borate, TWEEN 20 22.1 mM
substance,measurement,setting,value
Insulinotropin: the protein insulinotropin,Ellipticity (mean residue at 222 nm),"pH 3.5, 10 mM sodium chloroacetate, DTAC 0",-4268 deg-cm^2 /dmol
same,Ellipticity (mean residue at 222 nm),"pH 3.5, 10 mM sodium chloroacetate, DTAC 0.83 mM",-5182 deg-cm^2 /dmol
same,Ellipticity (mean residue at 222 nm),"pH 3.5, 10 mM sodium chloroacetate, DTAC 1.64 mM",-7285 deg-cm^2 /dmol
same,Ellipticity (mean residue at 222 nm),"pH 3.5, 10 mM sodium chloroacetate, DTAC 3.23 mM",-9863 deg-cm^2 /dmol
same,Ellipticity (mean residue at 222 nm),"pH 3.5, 10 mM sodium chloroacetate, DTAC 5.51 mM",-11672 deg-cm^2 /dmol
same,Ellipticity (mean residue at 222 nm),"pH 3.5, 10 mM sodium chloroacetate, DTAC 9.10 mM",-11951 deg-cm^2 /dmol
same,Ellipticity (mean residue at 222 nm),"pH 3.5, 10 mM sodium chloroacetate, DTAC 13.0 mM",-12219 deg-cm^2 /dmol
same,Ellipticity (mean residue at 222 nm),"pH 3.5, 10 mM sodium chloroacetate, DTAC 25.0 mM",-12326 deg-cm^2 /dmol
same,"Ellipticity (mean residue) (222 nm), raw",[1],-4877
same,"Ellipticity (mean residue) (222 nm), raw",[2],-7087
same,"Ellipticity (mean residue) (222 nm), raw",[3],-8437
same,Ellipticity (mean residue at 222 nm),"pH 3.5, 10 mM sodium chloroacetate, TWEEN 40 0",-4621 deg-cm^2 /dmol
same,Ellipticity (mean residue at 222 nm),"pH 3.5, 10 mM sodium chloroacetate, TWEEN 40 0.025 mM",-4997 deg-cm^2 /dmol
same,Ellipticity (mean residue at 222 nm),"pH 3.5, 10 mM sodium chloroacetate, TWEEN 40 0.092 mM",-6045 deg-cm^2 /dmol
same,Ellipticity (mean residue at 222 nm),"pH 3.5, 10 mM sodium chloroacetate, TWEEN 40 0.214 mM",-7317 deg-cm^2 /dmol
same,Ellipticity (mean residue at 222 nm),"pH 3.5, 10 mM sodium chloroacetate, TWEEN 40 0.390 mM",-8554 deg-cm^2 /dmol
same,Ellipticity (mean residue at 222 nm),"pH 3.5, 10 mM sodium chloroacetate, TWEEN 40 0.718 mM",-10379 deg-cm^2 /dmol
same,Ellipticity (mean residue at 222 nm),"pH 3.5, 10 mM sodium chloroacetate, TWEEN 40 1.21 mM",-12282 deg-cm^2 /dmol
same,Ellipticity (mean residue at 222 nm),"pH 3.5, 10 mM sodium chloroacetate, TWEEN 40 2.06 mM",-14017 deg-cm^2 /dmol
same,"Ellipticity, fractional change (% δ)",[1],0
same,"Ellipticity, fractional change (% δ)",[2],0.21
same,"Ellipticity, fractional change (% δ)",[3],0.34
same,"Ellipticity, fractional change (% δ)","pH 3.5, 10 mM sodium chloroacetate, TWEEN 20 0.515 mM",0.58
same,"Ellipticity, fractional change (% δ)","pH 3.5, 10 mM sodium chloroacetate, TWEEN 20 1.00 mM",0.59
same,"Ellipticity, fractional change (% δ)","pH 3.5, 10 mM sodium chloroacetate, TWEEN 20 1.67 mM",0.91
same,"Ellipticity, fractional change (% δ)","pH 3.5, 10 mM sodium chloroacetate, TWEEN 20 2.28 mM",0.96
same,"Ellipticity, fractional change (% δ)","pH 3.5, 10 mM sodium chloroacetate, TWEEN 20 3.20 mM",0.97
same,"Ellipticity, fractional change (% δ)","pH 3.5, 10 mM sodium chloroacetate, TWEEN 20 4.44 mM",1.00
same,"Ellipticity (mean residue) (222 nm), raw value",[4],-5010
same,"Ellipticity (mean residue) (222 nm), raw value",[5],-5641
same,"Ellipticity (mean residue) (222 nm), raw value",[6],-6252
same,"Ellipticity (mean residue) (222 nm), raw value",[7],-6553
same,"Ellipticity (mean residue) (222 nm), raw value",[8],-7050
same,"Ellipticity (mean residue) (222 nm), raw value",[9],-7857
same,"Ellipticity (mean residue) (222 nm), raw value",[10],-7915
same,"Ellipticity (mean residue) (222 nm), raw value",[11],-8970
same,"Ellipticity (mean residue) (222 nm), raw value",[12],-9165
same,"Ellipticity (mean residue) (222 nm), raw value",[13],-9124
same,"Ellipticity (mean residue) (222 nm), raw value",[14],-10288
same,"Ellipticity (mean residue) (222 nm), raw value",[15],-9702
same,"Ellipticity (mean residue) (222 nm), raw value",[16],-10451
same,"Ellipticity (mean residue) (222 nm), raw value",[17],-10540
same,"Ellipticity (mean residue) (222 nm), raw value",[18],-10709
same,"Ellipticity (mean residue) (222 nm), raw value",[19],-10876
same,"Ellipticity (mean residue) (222 nm), raw value",[20],-10872
same,"Ellipticity, fractional change (% δ)",[4],0
same,"Ellipticity, fractional change (% δ)",[5],.11
same,"Ellipticity, fractional change (% δ)",[6],.21
same,"Ellipticity, fractional change (% δ)",[7],.26
same,"Ellipticity, fractional change (% δ)",[8],.35
same,"Ellipticity, fractional change (% δ)",[9],.49
same,"Ellipticity, fractional change (% δ)",[10],.50
same,"Ellipticity, fractional change (% δ)",[11],.68
same,"Ellipticity, fractional change (% δ)",[12],.71
same,"Ellipticity, fractional change (% δ)",[13],.70
same,"Ellipticity, fractional change (% δ)",[14],.90
same,"Ellipticity, fractional change (% δ)",[15],.80
same,"Ellipticity, fractional change (% δ)",[16],.92
same,"Ellipticity, fractional change (% δ)",[17],.94
same,"Ellipticity, fractional change (% δ)",[18],.97
same,"Ellipticity, fractional change (% δ)",[19],1.00
same,"Ellipticity, fractional change (% δ)",[20],1.00
